{
  "source": "patent US20150274831A1",
  "about": "(Hoffmann-La Roche, published 2015)",
  "binders": {"B1": {"name": "Mab 2F11 (antibody, V domains shown)", "VH": "QVQLKESGPGLVAPSQSLSITCTVSGFSLTTYDISWIRQSPGKGLEWLGVIWTDGGTNYNSPFMSRLSIRKDNSKSQVFLKMNRLQTDDTAIYYCVRDQRLYFDVWGAGTTVTVSS", "VL": "NIVMTQSPKSMSMSVGERVTLNCKASEDVNTYVSWYQQQPEQSPKLLIYGASNRYTGVPDRFTGGGSTTDFTLTISSVQAEDLADYFCGQSFSYPTFGTGTKLEIK"}, "B2": {"name": "Mab 1G10 (antibody, V domains shown)", "VH": "B1 VH with Q1R, T31S, T53S, D54G, S68R, R70S, N73D, K75R, M82V, Q99L", "VL": "KIVMTQSPKSMSVSVGERVSLSCKASEDVGTYVSWYQQKPEQSPKLLIYGSSNRYTGVPDRFTGSGSATDFTLTISSVQAEDLADYSCGQSFTYPTFGTGTKLEIK"}, "B3": {"name": "Mab 2E10 (antibody, V domains shown)", "VH": "QVQLKESGPGLVAPSKSLSITCTVSGSSLDSFDISWIRQSPGKGLEWLGVIWTGGGTNYNSGFMSRLRITKDNSKSQVLLKMNSLQSDDTAIYYCVRDPRLYFDVWGAGTTVTVSS", "VL": "B1 VL with N22S, N30V, Q39K, E41D, G65S, T68A, F87Y, S91T"}, "B4": {"name": "Mab 2H7 (antibody, V domains shown)", "VH": "B3 VH with S40P, T70S, L79F, N83S", "VL": "B1 VL with N22S, N30V, Q39K, G65S, T68A, V78I, F87Y, S91T"}},
  "molecular_target": "CSF-1R on cynomolgous monocytes (native receptor of CD14-enriched peripheral blood monocytes) (cynomolgous)",
  "test": "cell-based or functional assay",
  "note": "Where a chain is given by its changes, count along the chain named.",
  "data": [
    {"binder": "B1", "values": [
      {"measurement": "% inhibition (of survival) = (100% - % survival) (CellTiterGlo; cynomolgous monocytes with 150 ng/ml huCSF-1; 5 µg/ml antibody)", "result": 96, "unit": "%"},
      {"measurement": "% survival (CellTiterGlo; cynomolgous monocytes with 150 ng/ml huCSF-1; 5 µg/ml antibody)", "result": 4, "unit": "%"}
    ]},
    {"binder": "B2", "values": [
      {"measurement": "% inhibition (of survival) = (100% - % survival) (CellTiterGlo; cynomolgous monocytes with 150 ng/ml huCSF-1; 5 µg/ml antibody)", "result": 98, "unit": "%"},
      {"measurement": "% survival (CellTiterGlo; cynomolgous monocytes with 150 ng/ml huCSF-1; 5 µg/ml antibody)", "result": 2, "unit": "%"}
    ]},
    {"binder": "B3", "values": [
      {"measurement": "% inhibition (of survival) = (100% - % survival) (CellTiterGlo; cynomolgous monocytes with 150 ng/ml huCSF-1; 5 µg/ml antibody)", "result": 83, "unit": "%"},
      {"measurement": "% survival (CellTiterGlo; cynomolgous monocytes with 150 ng/ml huCSF-1; 5 µg/ml antibody)", "result": 17, "unit": "%"}
    ]},
    {"binder": "B4", "values": [
      {"measurement": "% inhibition (of survival) = (100% - % survival) (CellTiterGlo; cynomolgous monocytes with 150 ng/ml huCSF-1; 5 µg/ml antibody)", "result": 92, "unit": "%"},
      {"measurement": "% survival (CellTiterGlo; cynomolgous monocytes with 150 ng/ml huCSF-1; 5 µg/ml antibody)", "result": 8, "unit": "%"}
    ]}
  ]
}
